From patent US20170218047A1, “NOVEL FUSION PARTNERS FOR THE PURPOSE OF CRYSTALLIZING G-PROTEIN COUPLED RECEPTORS” (THE SCRIPS RESEARCH INSTITUTE, priority 2011, published 2017)

Experiments:
[1] = Fluorescence (CPM) thermostability assay of β2AR constructs; format: physicochemical; conditions: 100 μM timolol; for thermostability: more stable than β2AR-T4L: increase relative to β2AR-T4L; for thermostability: less stable relative to β2AR-T4L: decrease relative to β2AR-T4L
Method: N-[4-(7-diethylamino-4-methyl-3-coumarinyl)phenyl]maleimide (CPM) dye was purchased from Invitrogen and dissolved in DMSO (Sigma) at 4 mg/mL as the stock solution for future use. The stock solution was kept at −80° C. and was diluted 1:40 in dye dilution solution (10 mM buffer, 500 mM NaCl, 10% glycerol, 0.025% DDM and 0.005% CHS) before use. The thermal denaturation assay was performed with total volume of 200 μL sample in a quartz fluorometer cuvette (Starna Cells, Inc., Atascadero, Calif.). Receptor (4 μg) was diluted in the appropriate buffer solution to a final volume of 200 μL, 5 μL of the diluted dye was added to the protein solution and incubated for 30 min at 4° C. The mixed solution was transferred to the cuvette and the data were collected by a Cary Eclipse spectrofluorometer (Varian, USA) with a temperature ramping rate at 2° C./min. The excitation wavelength was 387 nm and the emission wavelength was 463 nm. All assays were performed over a temperature range starting from 20° C. and 95° C. The stability data were processed with GraphPad Prism program (GraphPad Prism, Graphpad Software, San Diego, Calif., USA). In order to determine the melting temperature (Tm), a Boltzmann sigmoidal equation was used to fit to the data.
The thermostability of the different β2AR constructs was then evaluated. Assays were carried out in the presence of 100 μM timolol to maintain receptor stability during heating. […] We thus selected β2AR-BRIL and β2AR rubredoxin for further crystallization studies.

[2] = Size exclusion chromatography (SEC) of purified S1P1-fusion partner proteins; format: physicochemical; conditions: presence or absence of ligand
Method: S1P1-fusion partner proteins (“S1P1 fusion receptors”) were purified from membranes by dodecyl-maltoside (DDM) extraction followed by immobilized metal affinity chromatography (IMAC) on Talon resin (Clontech) as detailed below. Frozen cellular membranes were thawed by adding room temperature lysis buffer to a total volume of 25 mL. The S1P1 receptor antagonist W146 was added to a final concentration of 125 μM. The mixture was allowed to incubate at room temperature for 1 hour to ensure complete saturation of the receptor with ligand followed by addition of iodoacetamide to a concentration of 1 mg/mL and an additional 1 hour incubation at 4° C. Receptor solubilization was initiated by addition of detergent and cholesteryl hemisuccinate (CHS) to achieve a final concentration of 0.5% DDM 0.1% CHS. The solubilization buffer consisted of the following mixture: 50 mM Hepes pH 7.5; 800 mM NaCl; 30 mM Imidazole; 0.1% DDM 0.02% CHS; 125 μM W146. […]
Eluted proteins were analyzed by size-exclusion chromatography (SEC) followed by SDS-PAGE. […] SEC fractions corresponding to S1P1-fusion partner proteins were evaluated separated by SDS-PAGE on a 10% gel and stained, confirming that each S1P1-fusion partner protein could be purified to near-homogeneity (data not shown).

Substance | thermostability: more stable than β2AR-T4L [1] | thermostability: less stable relative to β2AR-T4L [1] | also measured
132AR-rubredoxin: β2-adrenergic receptor fused with rubredoxin, SEQ ID NO: 11 | approximately 8 °C |  | 
S1P1-Bril: S1P1 receptor with cytochrome b562 RIL replacing part of ICL3, SEQ ID NO: 2 |  |  | stability by SEC (in words) [2]: stable in the presence or absence of ligand
β2AR xylanase: β2-adrenergic receptor fused with xylanase, SEQ ID NO: 12 | about 3 °C |  | 
β2AR-BRIL: β2-adrenergic receptor with cytochrome b562 RIL replacing the third intracellular loop, SEQ ID NO: 10 | approximately 8 °C |  | 
β2AR-C-term T4L: β2-adrenergic receptor fused with T4 lysozyme C-terminal fragment, SEQ ID NO: 9 |  | ~4 °C | 
β2AR-flavodoxin: β2-adrenergic receptor fused with flavodoxin in place of T4L, SEQ ID NO: 13 |  | about 9 °C | 
